Measurements: publication PMC8628696, “Stable DNA Aptamer–Metal–Organic Framework as Horseradish Peroxidase Mimic for Ultra-Sensitive Detection of Carcinoembryonic Antigen in Serum”

Target: carcinoembryonic antigen (CEA) (human, UniProt P06731 35-685)
Assay: colorimetric antibody-aptamer sandwich assay; MOF-grafted tetrahedron 25 ug/mL; CEA 20 ng/mL; antibody-captured CEA; Colorimetric sandwich assay: TMB 2 mM, H2O2 0.2 M, detection time 20 min; binding buffer, pH and temperature not given in the material (storage in PBS at 37 C)
Settings: protein: commercial; label: grafted on PCN-222(Fe) MOF via 5' phosphates (peroxidase mimic); DNA tetrahedron of 4 strands with single-stranded 5' aptamer extension on strand D

carcinoembryonic antigen (CEA), sequence (P06731 35-685): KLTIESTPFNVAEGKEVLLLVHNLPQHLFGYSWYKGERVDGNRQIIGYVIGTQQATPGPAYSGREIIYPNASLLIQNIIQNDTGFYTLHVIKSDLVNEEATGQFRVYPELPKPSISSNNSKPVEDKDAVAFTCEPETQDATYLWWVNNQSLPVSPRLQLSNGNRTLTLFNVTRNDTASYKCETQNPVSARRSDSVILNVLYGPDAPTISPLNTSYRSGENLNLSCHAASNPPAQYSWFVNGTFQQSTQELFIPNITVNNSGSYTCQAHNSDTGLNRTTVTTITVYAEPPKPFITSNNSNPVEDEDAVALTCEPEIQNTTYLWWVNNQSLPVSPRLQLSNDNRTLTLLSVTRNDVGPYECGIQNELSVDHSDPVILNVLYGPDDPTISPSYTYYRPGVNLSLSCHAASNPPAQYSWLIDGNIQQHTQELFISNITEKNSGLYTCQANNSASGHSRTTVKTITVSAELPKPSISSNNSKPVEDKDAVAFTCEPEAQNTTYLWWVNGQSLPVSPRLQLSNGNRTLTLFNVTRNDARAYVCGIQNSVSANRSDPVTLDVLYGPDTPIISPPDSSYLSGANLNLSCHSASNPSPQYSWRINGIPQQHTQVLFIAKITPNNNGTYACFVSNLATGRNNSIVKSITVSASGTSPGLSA

B1: CEAapt-TDN (strands D+A+B+C) on PCN-222(Fe) MOF (structured_DNA)
DNA 1: ATACCAGCTTATTCAATTTTTTTTACATTCCTAAGTCTGAAACATTACAGCTTGCTACACGAGAAGAGCCGCCATAGTA
DNA 2: TATCACCAGGCAGTTGACAGTGTAGCAAGCTGTAATAGATGCGAGGGTCCAATAC
DNA 3: TCAACTGCCTGGTGATAAAACGACACTACGTGGGAATCTACTATGGCGGCTCTTC
DNA 4: TTCAGACTTAGGAATGTGCTTCCCACGTAGTGTCGTTTGTATTGGACCCTCGCAT
modifications: 5' phosphate on strands A, B and C
  binding result: binds
